From doi:10.1101/2022.02.09.479746 (bioRxiv, 2022)
Residue numbers refer to the chain shown, from its start. Names and notes keep the numbering of the source.

Molecular target: the molecule itself
Assay: SEC

B1: MBP-DFCP1 112-415 (isolated GTPase domain), wild type (domain or fragment, human, UniProt Q9HBF4 112-415, looked up)
chain: NKRRHPVTVYNVSNLQESLEAEEMDEETKRKKMTEKVVSFLLVDENEEIQVTNEEDFIRKLDCKPDQHLKVVSIFGNTGDGKSHTLNHTFFYGREVFKTSPTQESCTVGVWAAYDPVHKVAVIDTEGLLGATVNLSQRTRLLLKVLAISDLVIYRTHADRLHNDLFKFLGDASEAYLKHFTKELKATTARCGLDVPLSTLGPAVIIFHETVHTQLLGSDHPSEVPEKLIQDRFRKLGRFPEAFSSIHYKGTRTYNPPTDFSGLRRALEQLLENNTTRSPRHPGVIFKALKALSDRFSGEIPDDQ
  stoichiometry N: 2

B2: MBP-DFCP1 112-415 R266Q (GTPase domain with the cancer-related mutation R266Q) (domain or fragment, human, UniProt Q9HBF4 112-415, looked up)
chain: B1 chain with R155Q
  stoichiometry N: 2

B3: full-length FLAG-DFCP1 (Double FYVE Domain Containing Protein 1) (natural protein, human, UniProt Q9HBF4 1-777, looked up)
chain: MSAQTSPAEKGLNPGLMCQESYACSGTDEAIFECDECCSLQCLRCEEELHRQERLRNHERIRLKPGHVPYCDLCKGLSGHLPGVRQRAIVRCQTCKINLCLECQKRTHSGGNKRRHPVTVYNVSNLQESLEAEEMDEETKRKKMTEKVVSFLLVDENEEIQVTNEEDFIRKLDCKPDQHLKVVSIFGNTGDGKSHTLNHTFFYGREVFKTSPTQESCTVGVWAAYDPVHKVAVIDTEGLLGATVNLSQRTRLLLKVLAISDLVIYRTHADRLHNDLFKFLGDASEAYLKHFTKELKATTARCGLDVPLSTLGPAVIIFHETVHTQLLGSDHPSEVPEKLIQDRFRKLGRFPEAFSSIHYKGTRTYNPPTDFSGLRRALEQLLENNTTRSPRHPGVIFKALKALSDRFSGEIPDDQMAHSSFFPDEYFTCSSLCLSCGVGCKKSMNHGKEGVPHEAKSRCRYSHQYDNRVYTCKACYERGEEVSVVPKTSASTDSPWMGLAKYAWSGYVIECPNCGVVYRSRQYWFGNQDPVDTVVRTEIVHVWPGTDGFLKDNNNAAQRLLDGMNFMAQSVSELSLGPTKAVTSWLTDQIAPAYWRPNSQILSCNKCATSFKDNDTKHHCRACGEGFCDSCSSKTRPVPERGWGPAPVRVCDNCYEARNVQLAVTEAQVDDEGGTLIARKVGEAVQNTLGAVVTAIDIPLGLVKDAARPAYWVPDHEILHCHNCRKEFSIKLSKHHCRACGQGFCDECSHDRRAVPSRGWDHPVRVCFNCNKKPGDL
  stoichiometry N: 2
